These results are taken from the supplement of paper PMC12042874.

± gives the uncertainty stated by the source.

A short description of this data set: amyloid nucleation score (Sup35N fusion, yeast selection) (log enrichment); library NNK2; higher = more nucleation; inactive = no reads after selection. The method in brief: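 In psi-negative yeast, Sup35N fusions carrying peptides of 20 random codons were induced with 100 μM copper sulfate for 24 hours. The cells then grew 7 days at 30°C on medium lacking adenine and uracil, and plasmid inserts from input and output were Illumina-sequenced, excluding sequences with under 100 input reads. Nucleation score is the DiMSum log enrichment of output over input reads, centred on the mode score of non-aggregating sequences.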
For LQYAKSHRVSWDGMAANSPG, the amyloid nucleation score stood at 0.067 ± 0.45. To IWQNVDCCPSWRLCVANHFM belongs 6.778 ± 0.054.

As to TFRLRECWCDADLRVGVMSL, the amyloid nucleation score came to 0.778 ± 0.47. To VEVKNRYRVRKLLCGLLRIR belongs 0.799 ± 0.74; to VYALCMGLAWKGLDYHKGER, 5.68 ± 0.07; to HIICSRHSNEAKLRMKSKAI, -1.03 ± 0.61.

For VDCCSFSLWVVW, the amyloid nucleation score came out at 3.98 ± 0.093. Take RMVSPSPMAQNKLGYATTLG: the amyloid nucleation score was 0.02 ± 0.49. To MVPVFTGWRICVGGNCLARR belongs -0.162 ± 0.34; to FWQVCPLYRSSCIGSGCCIK, 1.78 ± 0.17.

In the case of HIVVTKTWAGQRHVQFIM, the amyloid nucleation score was 1.07 ± 0.26. As for DTSSYKTYDRLHQLYRNELR, the figure is 0.709 ± 0.23. As for NLFQRCREGDMVRNSSVLDG, the figure is -0.017 ± 1.

The substance WSKVMCQWFSDIYSVTNFGC registered an amyloid nucleation score of 2.76 ± 0.085.

Consider GNNNMRPIALCTLSMGGRTF, for which the amyloid nucleation score was -0.575 ± 0.49. As for GRMLKFLCWRWVVLMSGAPG, the entry is “inactive”; as for VWGFVSGIESMCGSKAPNGG, -0.158 ± 0.33. As for LSNKRKVSSLLM, the entry is “inactive”; as for NDTRSLLML, 0.259 ± 0.24. As for NVCIKLARCVVGLNLRFRGS, the figure is -0.347 ± 0.79; as for MFVGGGSSSTWLGNVWYVGS, -0.337 ± 1.1. NRSMSISGMTGYEQLKRHGT showed an amyloid nucleation score of 0.023 ± 0.27.

As for FKIVALTTVNIVLRDSWCNP, the amyloid nucleation score is 6.199 ± 0.061. In turn, FCMFSNIYVFPSTIF yielded an amyloid nucleation score of 7.583 ± 0.02. As for YYLFGKF, the figure is -0.509 ± 1.1; as for IKSSAFGAGVQLAAQRSVIT, -0.432 ± 0.29; as for WLVRLVIGGFTQSGMWLTEI, 1.06 ± 0.16. As for WYSSGMTGIIRRVDKWCAFS, the amyloid nucleation score is -0.939 ± 0.45. To RRLLLLGSFWGSVHQHVTSS belongs -0.207 ± 0.4. To QRDDVISRCVYHYFKVVPGA belongs -0.183 ± 0.55; to NIYGDNVGCYSTECYNTKLI, -0.305 ± 0.74; to SFPDSSRSKWIS, -0.775 ± 0.45. As for KSPNHSDRVQWMKYTFWYTL, the figure is -0.003 ± 1.1. In turn, WIVSGKLTTTFSLRR displayed an amyloid nucleation score of 5.15 ± 0.058.

Regarding RVVRLAFNPRPSDAWILYR, the amyloid nucleation score worked out at 0.325 ± 0.34.

Consider IRFTKYNDGCILIMPRDVQV, for which the amyloid nucleation score was -0.995 ± 0.55.

For the substance RWEDRPSVTRRSGVRNGFSG, the amyloid nucleation score entry is “inactive”. As for TNRLMVEVALIFRSINCVNR, the figure is -0.561 ± 0.38.

ELRPIHIFKFFT gave an amyloid nucleation score of -0.253 ± 0.4.

As for MYTKVNF, the amyloid nucleation score is -0.93 ± 0.76.

In turn, MILEVSDWLGVVCVIKVWLT returned an amyloid nucleation score of 0.561 ± 0.41. To SGFGGLEGFIRPSYSLLAGW belongs -0.424 ± 0.48.

QWIAGVYV yielded an amyloid nucleation score of 3.23 ± 0.048. As for MWFWTLCIF, the figure is 8.025 ± 0.027; as for CSRRNRRIGVALRFIFLDIY, -0.956 ± 0.78; as for NFLCVSDKGCDCVESKLG, 8.145 ± 0.033. To KGTYNDIMLRYACCMAGVKR belongs -0.053 ± 0.49; to SVDRVYGSTFIFSRGDR, 8.113 ± 0.022. To SVSLDMGFSLDSHMRGEGRS belongs 5.22 ± 0.057. LFSILAGS gave an amyloid nucleation score of 0.575 ± 0.46. To YAFHSSWYADRSALLQLN belongs 0.434 ± 0.3; to SSRTPNYA, “inactive”. To SFLWLSMFVESAQVVNLQLY belongs 5.485 ± 0.038; to VTPTEGCSVSHVRSRSLKNA, -0.511 ± 0.49; to WWNEYSH, -1.01 ± 0.39.

Consider YYFDPS, for which the amyloid nucleation score is -0.961 ± 0.62.

Substance SLGHDSICWRWSLE registered an amyloid nucleation score of 5.49 ± 0.094. As for HLESAWSRVSTDRCTNTWTV, the figure is 0.506 ± 0.45; as for TNDHQFCESNMRVMSEGIGP, -0.284 ± 1.1. As for THSWGFSLYTFLVYINLSYI, the figure is -0.545 ± 1. As for CDTLTRRFVRCNVWFQCKR, the figure is 3.96 ± 0.056; as for SHIDMFAQECYLCFANVHRR, 2.78 ± 0.21; as for IIKANVSVRYVFDKFHKMVH, 2.83 ± 0.094. Consider SCFLSMYVISV, for which the amyloid nucleation score result was “inactive”. As for GYTIPLYQYKNWGLE, the figure is -0.515 ± 1; as for YPFILVVTIEYACLVRRLGV, -0.309 ± 0.23; as for HEEVLLHGLVCKLHRMKR, 0.474 ± 0.26. As for FYTYDLSFMSNYSVLRVLCS, the figure is -1.48 ± 0.62; as for IIGASCTNNSRMVLVWATVF, -0.76 ± 1. As for IASTVDFKSLIISGDPSRQF, the figure is -0.235 ± 0.46. With GLCKFKQVCTNSVGNYVGYF, the amyloid nucleation score is -2.18 ± 0.62. As for MPWFIQMVHLCWFPEGRTRF, the figure is 4.85 ± 0.071; as for YFNPI, 5.196 ± 0.047. As for MFLFGASLRIIRVVLTYELL, the entry is “inactive”. As for RWIVGQRRKIESWWQMVPIY, the figure is 0.81 ± 0.4. In the case of IMNGLMDFMLTKVLKDMFNW, the amyloid nucleation score was -0.249 ± 1.1. To YNYLCWNRKKGANRTCVSGR belongs -0.502 ± 0.44; to EMNFKALLKGVNGFVWDGVF, 1.43 ± 0.21. To APHGLRKHSIMVAGMLRSVG belongs 2.68 ± 0.14; to YCHPFVRHRLKLCTDACY, -0.174 ± 0.31. As for MCTDFQC, the figure is 0.475 ± 0.27; as for RCLTELTNETNYVGAG, 0.405 ± 0.3. LHGVVGLFKY gave an amyloid nucleation score of -1.55 ± 0.41.

Regarding SYPVDEMMRFCLFVMDTGQL, the amyloid nucleation score came out at 0.106 ± 0.54. To DNMSNYSGACLSNYL belongs -0.292 ± 0.56; to ILNNMIL, 2.55 ± 0.21; to TKVMQGVNSMARGV, 1.08 ± 0.39. As for MTLVRFSRIGALKLCLQKES, the figure is -0.337 ± 0.39; as for SASDTRGCCQHIPVSLGILT, 0.119 ± 0.74. As for LVLSGGRV, the figure is 0.184 ± 0.42.

For the substance LMWENFSRRLLYWLLCGS, the amyloid nucleation score entry is “inactive”.

Consider SGSALLIEFRYSTSFREKRI, for which the amyloid nucleation score amounted to 5.687 ± 0.046. As for NSFVYGCKCYALTFLRTFLV, the figure is -1.48 ± 0.62; as for LSSHPLGLGHTMGHRKF, 0.985 ± 0.48; as for RYLSLVFVYIVGVLYSSCDV, 0.383 ± 0.14. To AVSTMGIVSIVF belongs “inactive”.

As to RRRGVLLTRPLKRQLVK, the amyloid nucleation score entry was “inactive”.

Take RECFGGVQYRVRFSKFPYES: the amyloid nucleation score was -0.663 ± 0.5. YLNCDSFMRSVVYFNLWDIG had an amyloid nucleation score of -1.57 ± 0.75. With FRLRMRSGYSARLSRFFCPL, the amyloid nucleation score was 2.51 ± 0.077. To LLNFYGGMWRGYLTLRYVFG belongs 0.201 ± 0.6; to VKLPITGIERLLEARQGDQW, 0.757 ± 0.39. As for ALMHTNGTV, the figure is -0.406 ± 1.1; as for TTVSYISERFTYLGSL, 3.84 ± 0.12. As for GLSGFSPQFASATIAQSIP, the figure is 1.36 ± 0.23; as for RFNYEP, 0.262 ± 0.46. The substance SLPFTLLNKSAHWNSLWFPG displayed an amyloid nucleation score of -1.24 ± 1.1. Turning to QIFFWSSFN, the amyloid nucleation score entry was “inactive”.

As for YVLIVRYILGSSLRELAYGR, the amyloid nucleation score is -0.38 ± 0.3. With FDNRNVSVSYPYNKMGNRVM, the amyloid nucleation score worked out at 2.57 ± 0.069. For the substance KTISNYVAGN, the amyloid nucleation score entry is “inactive”.

The substance SRSKGYLYGIMSAKLRCSLK displayed an amyloid nucleation score of 0.206 ± 0.39. As for SESMFLVKDSLTWTDVFLIG, the figure is -1.07 ± 1.1. To LIISRTFVTAPM belongs “inactive”; to LYFMCNFLTCSL, 7.893 ± 0.057; to VYLINRWVYPWEFIVHIIRV, “inactive”. The substance LVLLVPGKLMCF displayed an amyloid nucleation score of 4.12 ± 0.081. To GLMRVRYESHRMKAGSLVSR belongs 1.89 ± 0.36. As for PVGLY, the figure is -0.308 ± 0.42; as for RVISFIYWSVTGDSDCLLWC, 4.24 ± 0.067. As for VVLPFGMHAWYTKDNVEISS, the figure is 0.181 ± 0.15. In turn, GSDFQFRSSATVLSAVEFLL had an amyloid nucleation score of -0.227 ± 0.35. To NKEKN belongs 2.58 ± 0.13; to LIMYR, -0.83 ± 0.3; to RLSFNWSLKSYMLPLESSVV, -0.079 ± 0.55. As for TFNLKPRFLFV, the figure is 5.18 ± 0.087; as for GEPLNGSAGLVGH, 0.234 ± 0.34; as for CQFSTQMMVICSFTTLTSVL, 1.98 ± 0.13. As for SHWEMRQVGSVVVGIKGKGN, the figure is 0.972 ± 0.67; as for YSFLWSVTATFDVTIISGCA, 3.1 ± 0.05.

For EFIAISLSFVPLYRVVSGSG, the amyloid nucleation score was -0.674 ± 0.79.

For WDTSGRFVLNWVFWEGHPKM, the amyloid nucleation score was found to be 0.768 ± 0.56. As for VSVARSSFARKDYCEFFRPG, the figure is 1.17 ± 0.28; as for RNITVTIFCLTAHRA, 9.317 ± 0.054; as for TYFLGPLVSNSLRYY, 4.027 ± 0.04. As for MYEFQPRLDHRLFRYICMNV, the figure is -0.018 ± 1.1; as for CGMKTRQYCTMSRYVGRYVR, 0.231 ± 0.24.

For CLMDTGVFREYCS, the amyloid nucleation score was -0.585 ± 0.26. As for HWNMLSIENLAHVEIIRLGS, the figure is 7.085 ± 0.043.
